According to paper PMC4803751, “Identification and Partial Characterization of a Novel UDP-N-Acetylenolpyruvoylglucosamine Reductase/UDP-N-Acetylmuramate:L-Alanine Ligase Fusion Enzyme from Verrucomicrobium spinosum DSM 4136^T” (Frontiers in Microbiology, 2016):

Assays:
Assay in all cases: radiometric HPLC assay of UDP-MurNAc-L-Ala formation
Type in all cases: biochemical, Verrucomicrobium spinosum
[1] = substrate: C[C@H](N)C(=O)O; settings: 5 mM ATP, 1 mM UDP-MurNAc, 10 mM MgCl2, 100 mM Tris-HCl pH 9.0, 10 mM ammonium sulfate, 0.5 mg/mL BSA, 37°C, L-Ala 10-400 μM, labelled compound, MurC activity
From the text: (§1) radiometric HPLC assay of UDP-MurNAc-L-Ala formation on MurB/CVs (MurCVs activity)

[2] = substrate: CC(=O)N[C@H]1[C@@H](OP(=O)(O)OP(=O)(O)OC[C@H]2O[C@@H](n3ccc(=O)[nH]c3=O)[C@H](O)[C@@H]2O)O[C@H](CO)[C@@H](O)[C@@H]1O[C@H](C)C(=O)O; settings: 5 mM ATP, 0.2 mM L-Ala, 10 mM MgCl2, 100 mM Tris-HCl pH 9.0, 10 mM ammonium sulfate, 0.5 mg/mL BSA, 37°C, UDP-MurNAc 25-500 μM, labelled compound, MurC activity
From the text: as §1

[3] = substrate: Nc1ncnc2c1ncn2[C@@H]1O[C@H](COP(=O)(O)OP(=O)(O)OP(=O)(O)O)[C@@H](O)[C@H]1O; settings: 1 mM UDP-MurNAc, 0.2 mM L-Ala, 10 mM MgCl2, 100 mM Tris-HCl pH 9.0, 10 mM ammonium sulfate, 0.5 mg/mL BSA, 37°C, ATP 0.2-5 mM, MurC activity
From the text: as §1

B1: MurB/CVs (MurCVs activity) (Verrucomicrobium spinosum) (protein)
chain: MNHAVVSLLKEGRHKMHVHLIGVAGSGMSGLALLLMELGHKVSGSDKVTTLETERMEKKGLIFHCPQSEREVEGADMVIYSSAVKPGNPAYEAAYRHGIPLVRRAEALAAIMARKHGVVVAGTHGKTTTSSMAAHVLRVGGAKPSHYVGAEIPILGSNAHWDDAGELFVAEGDESDGTLVKFEPRHAIILNIEAEHLDYYEDLNEIKLVFRQLLEKTSGYSVYCAEDPVATELCEGRKNGISYGWSRDHNFSANILELRPAQTRYEVFQKGELLGEVLLGIPGRHNVLNSLAAISLAVSVGVPFSSIKQALESFRGARRRFEVKYSGSQYQIIDDYGHHPTEIKATLATAKALNPKRIVCLFQPHRYSRTQLLKQEFGGAFNDVDVLCVTDVYAASEKPLPGVSGETILEEVKLQAPGVECHSTPKLLNARDLIGSKLRPGDLLITLGAGNVHEVGSALARDLKVAEQLTTVLNREGGGTVKLYEPMANHTTIRLGGPAQYWIEPMTIQGFAEVVKALRAALIPIRVIGRGSNLLVRDGGIKGAVLHPSKGEFDEVRVDGNFIFAATGVRLKKIASAARAAGLGGFEWMEGIPGNLGGALRMNAGAMGLQTFDQVVSVRFLDGNGELREKMKHEIDHQYRSVPELDRHFAVSAVLQGRPAEAAEIDEKLAASHQKRRGSQPIGASAGCIFKNPGPVPAGKLVDELGLKGRSFGKAIVSDVHGNFILNSGGGTARDVQDLISDIKQVALQERGIMLETEVQIIGEEEPLPL
[1]
  Km: 25 ± 10 µM
  kcat: 8 s⁻¹
[2]
  Km: 90 ± 25 µM
[3]
  Km: 470 ± 160 µM
